Results reported in patent US20260274955A1 (JANUX THERAPEUTICS, published 2026).

B1: Phage-1015 (peptide)
peptide: TCAAGASYQWPLCF
B2: Phage-983 (peptide)
peptide: TCAAGATYEWPTCL
B3: Phage-1017 (peptide)
peptide: SCSAGFHYPWPICL
B4: Phage-981 (peptide)
peptide: WCAAVFSYTWSPCL
B5: Phage-1018 (peptide)
peptide: LCKPGVPYQWPTCL
B6: Phage-1021 (peptide)
peptide: WCAEFFNYHWPLCF
B7: Phage-1019 (peptide)
peptide: MCTAGALYNWPTCL
B8: Phage-1016 (peptide)
peptide: SCAAGASYSWPACF
B9: Phage-980 (peptide)
peptide: TCAAGATYEWPYCF
B10: Phage-986 (peptide)
peptide: PCAAGAMWPWPVCL
B11: Phage-1014 (peptide)
peptide: YCSAGAQWPWPICL
B12: Phage-1020 (peptide)
peptide: TCAAGAHYPWPYCL
B13: Phage-982 (peptide)
peptide: TCAAGAAYTWPACF
B14: Phage-106 (peptide)
peptide: YCDGHSREYIAKCL
B15: Phage-80 (peptide)
peptide: YCQGHLPMYMEKCL
B16: Phage-132 (peptide)
peptide: YCQGHLPIYMEKCL
B17: Phage-77 (peptide)
peptide: YCQGHLPMYMAKCL
B18: Phage-140 (peptide)
peptide: YCEGHLPMYMDKCL
B19: Phage-12 (peptide)
peptide: DCWWMFESYPGRCI
B20: Phage-20 (peptide)
peptide: YCAGMSTIQLWLKC
B21: Phage-10 (peptide)
peptide: YCAGHSPINIGKCL
B22: Phage-136 (peptide)
peptide: YCEGHLPEYMQKCM
B23: Phage-79 (peptide)
peptide: YCDGHSPMYILKCL
B24: Phage-103 (peptide)
peptide: YCEGHSSEYMLKCL
B25: Phage-85 (peptide)
peptide: YCEGHSWANLGKCL
B26: Phage-74 (peptide)
peptide: YCEGHSPEYMAKCL
B27: Phage-130 (peptide)
peptide: YCQGHLPEYMNKCL
B28: Phage-131 (peptide)
peptide: YCDGHSQEYMAKCL
B29: Phage-84 (peptide)
peptide: YCDGHLPIYMSKCL
B30: Phage-104 (peptide)
peptide: YCEGHAAEYMEKCL
B31: Phage-137 (peptide)
peptide: YCDGHSAEYMAKCL
B32: Phage-113 (peptide)
peptide: YCDGHSSEYMAKCL
B33: Phage-109 (peptide)
peptide: YCDGHLPMYMMKCL
B34: Phage-81 (peptide)
peptide: YCEGHLPQYMAKCL
B35: Phage-76 (peptide)
peptide: YCDGHLPQYMAKCL
B36: Phage-110 (peptide)
peptide: YCQGHAPEYMAKCL
B37: Phage-107 (peptide)
peptide: YCDGHLPQYMWKCL
B38: Phage-83 (peptide)
peptide: YCDGHLPMYMQKCL
B39: Phage-82 (peptide)
peptide: YCDGHSPLYMWKCL
B40: Phage-108 (peptide)
peptide: YCDGHVPEYMAKCL
B41: Phage-129 (peptide)
peptide: YCEGHAWEYMAKCL
B42: Phage-112 (peptide)
peptide: YCSGHLPQYMQKCL
B43: Phage-138 (peptide)
peptide: YCEGHSPEYMYKCL
B44: Phage-134 (peptide)
peptide: YCDGHLPQYMNKCL
B45: Phage-78 (peptide)
peptide: YCDGHLPEYMMKCL
B46: Phage-75 (peptide)
peptide: YCDGHLPEYMSKCL
B47: Phage-133 (peptide)
peptide: YCDGHLPLYLAKCL
B48: Phage-128 (peptide)
peptide: YCAGHLPEYMEKCL
B49: Phage-111 (peptide)
peptide: YCDGHSQEYMMKCL
B50: Phage-87 (peptide)
peptide: YCEGHLPEYMLKCL
B51: Phage-23 (peptide)
peptide: YCMGHSHEHIWKCL
B52: Phage-17 (peptide)
peptide: WICDKSGSIMLCRA
B53: Phage-11 (peptide)
peptide: WCWDYKLWVPMTCP
B54: Phage-139 (peptide)
peptide: YCDGHSMEYMSKCL
B55: Phage-15 (peptide)
peptide: YWYCSPSIVRCVLV
B56: Phage-18 (peptide)
peptide: SCAAGASYAWPYCL
B57: Phage-101 (peptide)
peptide: YCDGHAPQYMRKCL
B58: Phage-105 (peptide)
peptide: YCEGHSAQYMSKCL
B59: Phage-19 (peptide)
peptide: DCPWLSGFSRPLLC
B60: Phage-24 (peptide)
peptide: YCAGHSHEYLAKCE
B61: Phage-102 (peptide)
peptide: YCDGHAKEYMWKCL
B62: Phage-21 (peptide)
peptide: YCAGHMPQYEVKCL
B63: Phage-22 (peptide)
peptide: YCAGHTEEHYVKCM
B64: Phage-86 (peptide)
peptide: YCDGHLPEYREKCF

Target: T1, Anti-CD28 Fab (SEQ ID NOs: 202, 203)
T1 construct: biotinylated and captured on neutravidin coated plates in the phage ELISA
Assay: phage binding ELISA, Fab on plate;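 further: clonal phage supernatant ELISA, wells preincubated with CD28 antigen or blocking buffer only, then bound phage detected using HRP-linked anti-M13 antibody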
T1 sequence (VH, as listed by the source, chain 1 of 2): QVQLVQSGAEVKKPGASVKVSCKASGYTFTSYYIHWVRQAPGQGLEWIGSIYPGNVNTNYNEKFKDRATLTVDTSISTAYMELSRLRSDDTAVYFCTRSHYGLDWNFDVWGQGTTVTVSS
T1 sequence (VL, as listed by the source, chain 2 of 2): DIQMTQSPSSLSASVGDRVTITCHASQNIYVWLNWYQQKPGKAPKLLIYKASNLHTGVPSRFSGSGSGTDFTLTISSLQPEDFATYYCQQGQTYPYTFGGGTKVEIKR
Protocol: After panning, phage infected bacteria were plated out and colonies picked into 96 well blocks. Clonal phage was then amplified and separated from bacterial cells via centrifugation.
Clonal phage were harvested as crude supernatants and screened via standard ELISAs. […] Prior to the addition of clonal phage, wells were incubated with blocking buffer and CD28 antigen or blocking buffer alone. Without washing or aspirating, clonal phage supernatants were then added to the wells and incubated for a short time. Wells were then washed followed by detection of bound phage using a horse radish conjugated anti-M13 antibody. Clonal phage of interest were then sent for sequence analysis.

Point of comparison: B7, “Anti-CD28 Fab (SEQ ID NOs: 202, 203) signal” value 1.78. Against it:
- B1 — higher, 1.79
- B2 — higher, 1.96
- B3 — higher, 1.79
- B4 — higher, 1.96
- B5 — the same, 1.78
- B6 — lower, 1.77
- B8 — higher, 1.79
- B9 — higher, 1.96
- B10 — higher, 1.95
- B11 — higher, 1.79
- B12 — lower, 1.77
- B13 — higher, 1.96

Target: Anti-CD28 Fab (SEQ ID NOs: 202, 203)
Assay: phage binding ELISA on captured Fab;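 further: clonal phage supernatants added briefly to wells pre-incubated with CD28 antigen or with blocking buffer only, then washed, bound phage read by ELISA using HRP-coupled anti-M13 antibody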
Target sequence in this assay (VH, as listed by the source, chain 1 of 2): as the sequence (VH, as listed by the source, chain 1 of 2) above
Target sequence in this assay (VL, as listed by the source, chain 2 of 2): as the sequence (VL, as listed by the source, chain 2 of 2) above
Protocol: Clonal phage were harvested as crude supernatants and screened via standard ELISAs. […] Prior to the addition of clonal phage, wells were incubated with blocking buffer and CD28 antigen or blocking buffer alone. Without washing or aspirating, clonal phage supernatants were then added to the wells and incubated for a short time. Wells were then washed followed by detection of bound phage using a horse radish conjugated anti-M13 antibody.

Point of comparison: B61, “Anti-CD28 Fab signal” value 2.3. Against it:
- B14 — lower, 2.29
- B15 — higher, 2.34
- B16 — lower, 2.24
- B17 — higher, 2.34
- B18 — lower, 2.22
- B19 — lower, 1.65
- B20 — lower, 2.16
- B21 — lower, 1.49
- B22 — lower, 2.23
- B23 — higher, 2.34
- B24 — the same, 2.3
- B25 — higher, 2.32
- B26 — higher, 2.35
- B27 — lower, 2.24
- B28 — lower, 2.24
- B29 — higher, 2.32
- B30 — the same, 2.3
- B31 — lower, 2.23
- B32 — lower, 2.28
- B33 — lower, 2.28
- B34 — higher, 2.34
- B35 — higher, 2.35
- B36 — lower, 2.28
- B37 — lower, 2.29
- B38 — higher, 2.33
- B39 — higher, 2.34
- B40 — lower, 2.29
- B41 — lower, 2.24
- B42 — lower, 2.28
- B43 — lower, 2.23
- B44 — lower, 2.23
- B45 — higher, 2.34
- B46 — higher, 2.35
- B47 — lower, 2.23
- B48 — lower, 2.24
- B49 — lower, 2.28
- B50 — higher, 2.32
- B51 — lower, 0.87
- B52 — lower, 0.91
- B53 — higher, 2.51
- B54 — lower, 2.22
- B55 — lower, 1.51
- B56 — lower, 1.49
- B57 — the same, 2.3
- B58 — lower, 2.29
- B59 — lower, 1.27
- B60 — lower, 0.86
- B62 — lower, 0.22
- B63 — lower, 0.62
- B64 — higher, 2.32
